Data reported in publication PMC4115230, “Lipid–Protein Nanodiscs Offer New Perspectives for Structural and Functional Studies of Water-Soluble Membrane-Active Peptides” (Acta Naturae, 2014).

Key:
LPNs = assay: Gel filtration analysis of LPNs after peptide addition (nanodisc integrity, particle size); format: physicochemical; conditions: Superdex-200, 10 mM Tris-HCl, 0.1 M NaCl
Procedure: was carried out on a Superdex-200 resin using a Tricorn 5/200 column (GE Healthcare, Sweden) in buffer (10 mM Tris-HCl, 0.1 M NaCl, 1 mM EDTA, 1 mM NaN3, pH 7.4). Thyroglobulin (669 kDa, Stokes radius RH = 8.5 nm), ferritin (440 kDa, RH = 6.1 nm), catalase (232 kDa, RH = 5.22 nm), aldolase (158 kDa, RH = 4.81 nm) BSA (67 kDa, RH = 3.55 nm), and ovalbumin (43 kDa, RH = 3.05 nm) were used as calibration proteins. The flow rate through the column was 0.3 ml/min. Detection was performed at 280 nm. The particle size was determined from the elution volume vs the lgRH calibration curve. All the particle size (diameter) values provided below correspond to twice RH values. ;

[1] = test system: muscle-type nicotinic acetylcholine receptor; conditions: blocks ligand binding sites with its central loop; ref [36]; cited from earlier work
Text: Neurotoxin II (NT II) is a cationic non-hydrophobic peptide which is stabilized by four disulfide bonds and has the so-called “three-loop” β-structure fold characteristic for snake toxins (Fig. 1). […] It blocks, with its central loop, the ligand binding sites located on the receptor extracellular domain [36]. Unlike VSTx1, NT II has no explicit membrane activity. At the same time, the ^1H,^15N-, and ^31P-NMR spectroscopy investigation of NT II in the environment of DOPC/ DOPS/cholesterol (3 : 1 : 1) ...

[2] = test system: MSP (44-243 fragment of human apolipoprotein A1); assay: NMR titration binding isotherm with MSP; conditions: MSP without lipids; 1D 1H-NMR titration, 10 mM Tris-Ac, pH 7.0
Procedure: (§1) The recombinant 44–243 fragment of the human apolipoprotein A1 with a N-terminal sequence of six His residues was used as an MSP protein. The purified MSP protein, obtained as described in [20], was mixed at a molar ratio of 1 : 75 with lipids in the presence of a detergent, sodium cholate (2 : 1 cholate/lipids molar ratio), and the mixture was incubated at 4 °C for 3 h. When using saturated lipids (DLPC, DLPG), the reaction temperature was kept not lower than 25 °C. Spontaneous LPN assembly was initiated by detergent sorption to the Bio-Beads™ resin (Bio-Rad, USA) for 1.5 h. Purification of the nanodiscs was performed on a Ni^2+ Sepharose 6 Fast Flow resin (GE Healthcare, USA) equilibrated with buffer A (20 mM Tris-HCl, 0.5 M NaCl, 1 mM NaN3, pH 8.0). After loading the reaction mixture, the resin was washed with a fivefold volume of buffer A. LPNs were eluted with buffer A containing 100 mM imidazole. The MSP concentration was determined spectrophotometrically by absorbance at λ = 280 nm. The LPN concentration was determined by assuming that each nanodisc contained two MSP molecules.
(§2) NMR spectra were acquired at 40–45 °C on AVANCE -700 and AVANCE -III-800 spectrometers (Bruker, Germany) equipped with cryogenically cooled triple-resonance probes at the proton resonance frequencies of 700 and 800 MHz, respectively. […]

LPN/POPC/DOPS (4 : 1) [3] = assay: Topology of NT II on nanodisc membrane (combined NOE and PRE data); format: binding; conditions: fast exchange on the NMR scale
Procedure: (§3) The interaction of NT II with LPN was studied using a sample containing 45 μM ^2H,^15N-NT II, and 75 μM LPN/POPC/DOPS (4 : 1) (10 mM Tris-Ac, pH 7.0). To identify the peptide HN-groups making contacts with the nanodisc surface, the ^1H signal of choline group of the POPC lipid ((CH3)3N^+-, chemical shift is 3.2 ppm) was saturated at a frequency of 125 Hz for 0.1, 0.3, 0.5, 0.8, 1.0, 1.5, and 3.0 s using a relaxation delay of 3 s. […] To identify the peptide HN-groups making contacts with the hydrophobic region of the nanodisc membrane, the paramagnetic probe of 5-doxyl-stearic acid (5-DSA) was used. 5-DSA dissolved in a small amount of methanol was added to the sample containing NT II/LPN complexes to a final concentration of 10, 30, and 75 μM. […] The rates of the cross-correlation process between the dipole-dipole relaxation and relaxation arising from the chemical shift anisotropy of the ^15N nucleus (ηXY) were measured for the complexes of NT II with LPN/POPC/DOPS at 40 °C on an AVANCE -III-800 spectrometer, using amplitude modulated 2D ^1H,^15NTR OSY experiments. The rotational correlation time (τR) for the peptide HN-groups was calculated from the measured ηXY values.

LPN/POPC/DOPS (4 : 1) [4] = assay: Paramagnetic relaxation enhancement from 5-DSA in 2D 1H,15N-TROSY; format: binding; conditions: 5-DSA 10, 30 and 75 μM; 45 μM 2H,15N-NT II, 75 μM LPN/POPC/DOPS (4 : 1), pH 7.0
Procedure: as §3

LPN/POPC = assay: NMR titration binding isotherm with LPN/POPC nanodiscs; conditions: POPC, 1D 1H-NMR titration, 10 mM Tris-Ac, pH 7.0
Procedure: as §1, §2

LPN/POPC/DOPS (4 : 1) [5] = assay: Saturation of POPC choline signal (NOE magnetization transfer) in 2D 1H,15N-TROSY; format: binding; conditions: 45 μM 2H,15N-NT II, 75 μM LPN/POPC/DOPS (4 : 1), 10 mM Tris-Ac, pH 7.0
Procedure: as §3

LPN/POPC/DOPG (3 : 1) = assay: NMR titration binding isotherm with LPN/POPC/DOPG (3 : 1) nanodiscs; conditions: 10 mM Tris-Ac; for binding to LPNs: POPC/DOPG, 3 : 1, 1D 1H-NMR titration, pH 7.0
Procedure: as §1
(§4) NMR spectra were acquired at 40–45 °C on AVANCE -700 and AVANCE -III-800 spectrometers (Bruker, Germany) equipped with cryogenically cooled triple-resonance probes at the proton resonance frequencies of 700 and 800 MHz, respectively.
(§5) To measure the isotherms of the toxins binding to LPNs and MSP molecules, the VSTx1 and NT II samples ([…], 10 mM Tris-Ac, pH 7.0) were titrated with solutions of nanodiscs (70 μM) of various lipid compositions or with a MSP solution (0.7 mM). The 1D 1H-NMR spectrum was acquired at each point. A data analysis was performed assuming that the intensity of the observed NMR signals of a peptide is proportional to its equilibrium concentration in solution ([P]free). The binding curves were fitted either to the partition equilibrium equation (1) or to the Langmuir isotherm equation (2), taking into account the dilution of the initial samples upon titration:
(§6) where [LPN/lipid] is the LPN concentration (assuming that one nanodisc contains two MSP molecules) or the lipid concentration (assuming that one nanodisc contains 150 lipid molecules), [P]boundis the concentration of a peptide bound to LPN ([P]0 = [P]free+ [P]bound), Kpis the partition coefficient, n is the number of binding sites for a peptide on the nanodisc surface, and Knis the affinity constant of the peptide to the binding site on the nanodisc surface.

LPN/POPC/DOPS (4 : 1) [6] = assay: NMR titration binding isotherm with LPN/POPC/DOPS (4 : 1) nanodiscs; conditions: for binding to LPNs: POPC/DOPS, 4 : 1, 1D 1H-NMR titration, pH 7.0
Procedure: as §1, §4, §5, §6

LPN/POPC/DOPS (4 : 1) [7] = assay: 15N cross-correlation relaxation rates (ηXY) of NT II in complex with LPN; format: physicochemical
Procedure: as §4, §3

B1: neurotoxin II (peptide)
chain: LECHNQQSSQPPTTKTCSGETNCYKKWWSDHRGTIIERGCGCPKVKPGVNLNCCRTDRCNN
modifications: not fully specified; ends and bridges not checked; also: 2H,15N-labeled
- nanodisc disruption (LPNs; 1 mM EDTA, pH 7.4, 280 nm): no disruption of nanodiscs
- diameter of unbound toxin (LPNs; pH 7.4, diameter = 2 RH): ~ 2.6 nm
- inhibition of muscle-type nicotinic acetylcholine receptor [1]: highly specific inhibitor
- interaction with MSP [2]: absence of nonspecific toxin interactions with the MSP protein
- orientations on the nanodisc surface (LPN/POPC/DOPS (4 : 1) [3]): several (at least two) orientations
- orientations on the nanodisc surface (LPN/POPC/DOPS (4 : 1) [3]; listed as NTII): several orientations
- residues with maximum attenuation of HN-signal intensities (PRE) (LPN/POPC/DOPS (4 : 1) [4]): Thr21 residue of the toxin “head” and for residues of the third and second loops
- binding to LPNs (LPN/POPC): lack of detectable binding
- binding to LPNs (LPN/POPC; listed as NTII): does not bind
- toxin regions with drop of cross-peak intensity on POPC choline saturation (LPN/POPC/DOPS (4 : 1) [5]): 1) in the toxin “head”, near the putative binding site for phosphatidylserine, and 2) in the central (second) loop, at the level of Trp27, Trp28, and Ile35 residues
- binding to LPNs (LPN/POPC/DOPG (3 : 1)): low affinity
- binding to LPNs (LPN/POPC/DOPG (3 : 1); listed as NTII): comparatively low affinity
- Kp(LPN, MSP×2), partition coefficient (LPN/POPC/DOPG (3 : 1); partition equilibrium (eq. 1), LPN concentration as non-aqueous phase, pH 7.0, 40–45 °C, no added salt): 0.32 ± 0.01 ×10^6·M^-1
- Kp(Lipids), partition coefficient (LPN/POPC/DOPG (3 : 1); partition equilibrium (eq. 1), lipid concentration as non-aqueous phase (150 lipids per nanodisc), pH 7.0, 40–45 °C, no added salt): 2.13 ± 0.07 ×10^3·M^-1
- selectivity for membranes containing different anionic lipids (phosphatidylserine and phosphatidylglycerol) (LPN/POPC/DOPS (4 : 1) [6]; LPN/POPC/DOPS (4 : 1) compared with LPN/POPC/DOPG (3 : 1)): lack of significant NT II selectivity
- binding to LPNs (LPN/POPC/DOPS (4 : 1) [6]; 10 mM Tris-Ac): low affinity
- binding to LPNs (LPN/POPC/DOPS (4 : 1) [6]; 10 mM Tris-Ac, listed as NTII): comparatively low affinity
- Kp(LPN, MSP×2), partition coefficient (LPN/POPC/DOPS (4 : 1) [6]; partition equilibrium (eq. 1), LPN concentration as non-aqueous phase, 10 mM Tris-Ac, pH 7.0, 40–45 °C, no added salt): 0.16 ± 0.01 ×10^6·M^-1
- Kp(Lipids), partition coefficient (LPN/POPC/DOPS (4 : 1) [6]; partition equilibrium (eq. 1), lipid concentration as non-aqueous phase (150 lipids per nanodisc), 10 mM Tris-Ac, pH 7.0, 40–45 °C, no added salt): 1.07±0.07 ×10^3·M^-1
- ηXY, cross-correlation rates of 15N nuclear relaxation, range (LPN/POPC/DOPS (4 : 1) [7]; 2H,15N-NT II in complex with LPN/POPC/DOPS, 800 MHz, 40 °C): 2.5 to 40 Hz
- diameter of globular particle corresponding to mean τR (LPN/POPC/DOPS (4 : 1) [7]; calculated from mean τR): ~ 5.4 nm
- mass of globular particle corresponding to mean τR (LPN/POPC/DOPS (4 : 1) [7]; calculated from mean τR): ~ 34 kDa
- rotational correlation time τR, range (LPN/POPC/DOPS (4 : 1) [7]; calculated from ηXY, NT II in complex with LPN/POPC/DOPS, 40 °C): 2 to 31 ns
- rotational correlation time τR, mean (LPN/POPC/DOPS (4 : 1) [7]; calculated from ηXY, mean, NT II in complex with LPN/POPC/DOPS, 40 °C): ~ 12.5 ns
- ηXY, cross-correlation rates of 15N nuclear relaxation, mean (LPN/POPC/DOPS (4 : 1) [7]; mean value, 2H,15N-NT II in complex with LPN/POPC/DOPS, 800 MHz, 40 °C): 16.3 ± 9.2 Hz
